The chains are these.
B1: Y0313-1 (Fab, V domains shown)
VH: EVQLVESGGGLVQPGGSLRLSCAASGYDFTHYGMNWVRQAPGKGLEWVGWINTYTGEPTYAADFKRRFTFSLDTSKSTAYLQMNSLRAEDTAVYYCAKYPYYYGTSHWYFDVWGQGTL
VL: DIQLTQSPSSLSASVGDRVTITCRANEQLSNYLNWYQQKPGKAPKVLIYFTSSLHSGVPSRFSGSGSGTDFTLTISSLQPEDFATYYCQQYSTVPWTFGQGTKVEIKR
notes: Soluble Fab; Y0243-1 with VH3 H101Y and S105T
B2: F(ab)-8 (Fab, V domains shown)
VH: EVQLVESGGGLVQPGGSLRLSCAASGYTFTNYGMNWVRQAPGKGLEWVGWINTYTGEPTYAADFKRRFTFSLDTSKNTAYLQMNSLRAEDTAVYYCARYPHYYGSSHWYFDVWGQGTLVTVSS
VL: DIQMTQSPSSLSASVGDRVTITCSASQDISNYLNWYQQKPGKAPKVLIYFTSSLHSGVPSRFSGSGSGTDFTLTISSLQPEDFATYYCQQYSTVPWTFGQGTKVEIK
notes: F(ab)-5 with IleH69Phe and LeuH78Ala; Kabat numbers; Fab with human CH1 and CL
B3: F(ab)-9 (Fab, V domains shown)
VH: B2 VH with G49A
VL: B2 VL
notes: F(ab)-8 with GlyH49Ala; Kabat numbers; Fab with human CH1 and CL
B4: Y0238-3 (Fab, V domains shown)
VH: B1 VH with D28T, H31N, M34I
VL: B1 VL
notes: Soluble Fab
B5: Y0313-3 (Fab, V domains shown)
VH: B1 VH with D28T, H31N, M34I, T105S
VL: B1 VL
notes: Soluble Fab
B6: Y0238-7 (Fab, V domains shown)
VH: B1 VH with D28T, H31N, M34I, Y103W
VL: B1 VL
notes: From library YC-81 on the pY0192 template; Soluble Fab
B7: Y0244-4 (Fab, V domains shown)
VH: B1 VH with D28T, H31N, M34I, L72I, T74K, Y101H, T105S
VL: B1 VL
notes: Soluble Fab
B8: Y0244-1 (Fab, V domains shown)
VH: B1 VH with D28T, H31N, M34I, L72V, T74V, Y101H, T105S
VL: B1 VL
notes: Soluble Fab
B9: Y0238-10 (Fab, V domains shown)
VH: B1 VH with D28T, H31N, M34I, Y103R, G104N
VL: B1 VL
notes: as for B6
B10: Y0243-1 (Fab, V domains shown)
VH: B1 VH with Y101H, T105S
VL: B1 VL
notes: Soluble Fab
B11: Y0238-5 (Fab, V domains shown)
VH: B1 VH with D28T, H31N, M34I, Y103I, G104A, T105K
VL: B1 VL
notes: as for B6
B12: chIgG1 (antibody, V domains shown)
VH: EIQLVQSGPELKQPGETVRISCKASGYTFTNYGMNWVKQAPGKGLKWMGWINTYTGEPTYAADFKRRFTFSLETSASTAYLQISNLKNDDTATYFCAKYPHYYGSSHWYFDVWGAGTTVTVSS
VL: DIQMTQTTSSLSASLGDRVIISCSASQDISNYLNWYQQKPDGTVKVLIYFTSSLHSGVPSRFSGSGSGTDYSLTISNLEPEDIATYYCQQYSTVPWTFGGGTKLEIKR
notes: Murine A4.6.1 VL and VH fused to human kappa CL and human IgG1 heavy chain constant domains; also called chimeric IgG1
B13: muMAb VEGF A.4.6.1 (antibody, V domains shown)
VH: B12 VH
VL: B12 VL
notes: Original murine IgG1 antibody purified from ascites; also called murIgG1; murine mAb A4.6.1
B14: F(ab)-1 (Fab, V domains shown)
VH: B2 VH with F70I, L72R, T74N, A79L
VL: B2 VL with V46L

Substitutions are numbered along the chain they refer to. Numbers in names are those of the source. Where “and” joins values, the source holds several entries; their conditions need not be identical. Identical values can stand only once.

One experiment has as its target T1, rhVEGF165 (human, UniProt P15692 27-191). Nature of the experiment: cell-based or functional assay.
B1: the “IC50 (read off the curve)” value is around 0.5 nM.

The target of a further experiment is T2, VEGF (human, UniProt P15692-4 27-191, limits assumed).
T2 construct: Biotinylated in the KDR-IgG ELISA, amine-coupled to the chip in BIAcore; also called biotinylated VEGF; vascular endothelial growth factor
Nature of the experiment: competition ELISA (biotinylated VEGF to KDR-IgG). As to the method: (§1) Standards (6.9-440 ng/ml chimeric F(ab)) and two-fold serial of samples were incubated with 2 nM biotinylated VEGF for 1 h in tubes. The solutions from the tubes were then transferred to the ELISA plates and incubated for 1 h. […] Titration curves were fit with a four-parameter nonlinear regression curve-fitting program (KaleidaGraph, Synergy Software, Reading Pa.). […] Assays for full-length IgG were the same as for the F(ab)s except that the assay buffer contained 10% human serum.
Background: In an ELISA, binding on a coated surface is turned into a signal by an enzyme label.
In the case of B2, the “EC50 F(ab)-X / EC50 chimeric F(ab)” value worked out at 9.6 ratio and the “fold improvement in binding vs F(ab)-5” value came to 8 fold.

For B3, the “EC50 F(ab)-X / EC50 chimeric F(ab)” value is above 150 ratio and the “fold reduction in binding vs F(ab)-8” value is 15 fold.

The next experiment deals with T2, VEGF. Nature of the experiment: BIAcore-2000 SPR, relative to Y0192. As to the method:
(§2) BIAcore Analysis: The VEGF-binding affinities of Fab fragments were calculated from association and dissociation rate constants measured using a BIAcore-2000™ surface plasmon resonance system (BIAcore, Inc., Piscataway, N.J.). A biosensor chip was activated for covalent coupling of VEGF using N-ethyl-N′-(3-dimethylaminopropyl)-carbodiimide hydrochloride (EDC) and N-hydroxysuccinimide (NHS) according to the supplier's (BIAcore, Inc., Piscataway, N.J.) instructions. VEGF was buffered exchanged into 20 mM sodium acetate, pH 4.8 and diluted to approximately 50 μg/mL. An aliquot (35 μL) was injected at a flow rate of 2 μL/min to achieve approximately 700-1400 response units (RU) of coupled protein. Finally, 1 M ethanolamine was injected as a blocking agent.
(§3) For kinetics measurements, two-fold serial dilutions of Fab were injected in PBS/TWEEN™ buffer (0.05% TWEEN 20™ in phosphate buffered saline) at 25° C. at a flow rate of 10 μL/min. […] Equilibrium dissociation constants, Kd's from surface plasmon resonance (SPR) measurements were calculated as koff/kon.
In general terms: In SPR one partner is held on a chip, and binding of the other changes the refractive index at the surface.
For B4, the “Kd (wt)/Kd (mut)” value was at least 14 ratio.

Take B5: the “Kd (wt)/Kd (mut)” value was determined as 4.5 ratio.

Regarding B6, the “Kd (wt)/Kd (mut)” value was at least 7.3 ratio.

On to B1, for which the “Kd (wt)/Kd (mut)” value is at least 20 ratio.

B7: the “Kd (wt)/Kd (mut)” value came out at 0.9 ratio.

On to B8, for which the “Kd (wt)/Kd (mut)” value worked out at 3.6 ratio.

Turning to B9, the “Kd (wt)/Kd (mut)” value turned out to be 4.8 ratio.

On to B10, for which the “Kd (wt)/Kd (mut)” value is 4.1 ratio.

Turning to B11, the “Kd (wt)/Kd (mut)” value was determined as 3.2 ratio.

A further experiment deals with T2, VEGF. Nature of the experiment: BIAcore-2000 SPR, Fab over immobilized VEGF, 25 C. As to the method:
as §2, §3
For the molecule B4, the equilibrium dissociation constant (Kd) is at most 0.2 nM and the kon amounted to 17000 M⁻¹ s⁻¹.

The molecule B5 gave a Kd of 0.65 nM, a koff of 8.1e-06 s⁻¹ and a kon of 12000 M⁻¹ s⁻¹.

B6 gave a Kd of at most 0.4 nM and a kon of 15000 M⁻¹ s⁻¹.

As to B1, the Kd was at most 0.15 nM and the kon came out at 35000 M⁻¹ s⁻¹.

Molecule B7 returned a Kd of 3.3 nM, a koff of 0.00017 s⁻¹ and an on-rate constant (kon) of 52000 M⁻¹ s⁻¹.

Consider B8, for which the dissociation constant (Kd) worked out at 8 nM, the koff worked out at 0.00027 s⁻¹ and the on-rate (kon) is 34000 M⁻¹ s⁻¹.

The molecule B9 had a Kd of 0.6 nM, an off-rate constant (koff) of 9e-06 s⁻¹ and a kon of 16000 M⁻¹ s⁻¹.

As to B10, the affinity, expressed as Kd, was 0.7 nM; the koff turned out to be 4.5e-05 s⁻¹; the kon is 67000 M⁻¹ s⁻¹.

As to B11, binding was put at a Kd of 0.9 nM, the koff is 8e-06 s⁻¹ and the kon came to 8000 M⁻¹ s⁻¹.

The next experiment deals with T1, rhVEGF165. The experiment can be described thus: cell-based or functional assay. The source holds these as a separate data set.
Consider B1, for which the “fold potency over the wild-type Fab (Y0192), inhibition of VEGF-induced HuVEC growth” value was above 30 fold.

The next experiment deals with T2, VEGF. The experiment can be described thus: competition ELISA (biotinylated VEGF to KDR-IgG), 10% human serum. As to the method: as §1
Turning to B12, the EC50 is 0.113 µg/mL and 0.75 nM; the “IgG1/chIgG1 (EC50 ratio)” value worked out at 1 ratio.

In the case of B13, the “IgG1/chIgG1 (EC50 ratio)” value is 0.759 ratio.

The next experiment concerns the target T2, VEGF. The experiment can be described thus: BIAcore-2000 SPR, Fab over immobilized VEGF, 25 C; off-rate near detection limit. On the procedure: as §2, §3
B4 came in with a koff of at most 4e-06 s⁻¹.

As to B6, the koff was at most 6e-06 s⁻¹.

B1 registered a koff of at most 5.4e-06 s⁻¹.

The target of the next experiment is T2, VEGF. Nature of the experiment: competition ELISA (biotinylated VEGF to KDR-IgG). This is another data set of the same source.
For B14, the EC50 F(ab)-X / EC50 chimeric F(ab) was above 1350 and the fold reduction of binding affinity from the chimeric F(ab) is above 1000 fold.

What is called Kd is the constant that tells how readily two partners part at equilibrium. Higher therefore signals lower affinity. As a reminder, the kon is a measure of how fast the partners come together. A lower kon goes with slower complex formation. Broadly, the koff is the rate constant with which the complex falls apart. Low values mean a long-lived complex, high ones a short-lived complex. The EC50 is the concentration at which the effect is half-maximal.

The values are drawn from patent US20050112126A1 (Genentech, published 2005).
